Here are results for 2 molecules from patent publication US20240059770A1 (Eli Lilly, published 2024).

This experiment addresses T1, human oxyntomodulin (53-89) (human).
T1 construct: also called synthetic human oxyntomodulin
T1 peptide: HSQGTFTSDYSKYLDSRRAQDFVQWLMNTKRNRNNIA
Briefly: SPR (Biacore T100), antibody captured by anti-mouse IgG, oxyntomodulin 1.1-90 nmol/L as analyte, 1:1 model. As to the method: Kinetic analysis and binding specificity of the N-Terminal Antibody and the C-Terminal Antibody are determined by surface plasmon resonance using Biacore T100 (GE Healthcare Life Sciences). Goat anti-mouse IgG antibody (Southern Biotech) is immobilized on a Series S CM5 sensor chip and used to capture approximately 1500 response units of anti-oxyntomodulin IgG. Binding to duplicate injections of various concentrations of human oxyntomodulin (SEQ ID NO: 25) (1.1 to 90 nmol/L) diluted in running buffer (HEPES buffered saline containing 3 mmol/L EDTA and 0.05% Tween) and 22.5 nmol/L of either human glicentin span (49-89) (SEQ ID NO: 29) or human glucagon (53-81) (SEQ ID NO: 30) peptides are measured with a flow rate of […]. Kinetic constants are determined using 1:1 binding model with the T100 Evaluation software.
Using Biacore analysis of the N-Terminal Antibody, the equilibrium dissociation constant is 1.5×10⁻¹⁰ mol/L (Table 2).
Background: In SPR one partner is held on a chip, and binding of the other changes the refractive index at the surface.

B1: Anti-Human Oxyntomodulin N-Terminal Antibody (antibody, V domains shown)
VH: QIQLVQSGPELKKPGETVKISCKASGYTFTDYAFSWVKQAPGKGLKWMGWITTNTGEATYADDFKGRFAFSLETSASTAYLQISNLKNEDTATYFCARETEYGDSSWFGHWGQGTLVTVSA
VL: DIVLTQSPASLAVSLGQRATISCRASESVDGWGNSFMHWYQQKPGQPPKLLIYLATYRVAGIPARFSGSGSRTDFTLTINPVEADDVATYYCMQSSEDPYTFGGGTKLEIKR
notes: In SPR it was captured as IgG by goat anti-mouse IgG; In the sandwich immunoassay it was ruthenium-labelled; also called detection antibody
Broadly, the Kd is the constant that tells how readily two partners part at equilibrium. One may read the koff as the first-order rate constant of dissociation. Usually kon stands for a measure of how fast the partners come together. B1 gave a Kd of 0.15 nM, a koff of 0.001 s⁻¹ and a kon of 7.2e+06 M⁻¹ s⁻¹.

B2: Anti-Human Oxyntomodulin C-Terminal Antibody (antibody, V domains shown)
VH: QVQVQQSGAELVMPGTSVKLSCKASGYNFTNYWLHWVKQRPGQGLEWIGELDPEYGFANYNQKFKGKATLTVDKSSSTAYMQLSSLTSEDSAVYYCSAGFMDYWGQGTSVTVSS
VL: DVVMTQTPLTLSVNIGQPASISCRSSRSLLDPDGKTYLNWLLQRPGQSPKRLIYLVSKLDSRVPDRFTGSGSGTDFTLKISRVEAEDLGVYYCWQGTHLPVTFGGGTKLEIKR
notes: In SPR it was captured as IgG by goat anti-mouse IgG; In the sandwich immunoassay it was biotin-labelled and held on streptavidin plates; also called capture antibody
On to B2, for which binding was characterised by a dissociation constant (Kd) of 0.083 nM, the koff came out at 0.00086 s⁻¹ and the kon amounted to 1e+07 M⁻¹ s⁻¹.
